Positions of bridges follow the written chain, without caps; N, C: chain ends. Non-standard residues stand in square brackets, D forms with d. Residues, ends and D or L forms follow the SMILES beside them. Nle = CCCC[C@H](N)C(=O)O
T1: HVEM-His protein (UniProt Q92956 39-202, labelled with RED-tris-NTA 2nd Generation dye on the His tag (spectral shift only))
T1 construct: Herpes virus entry mediator (HVEM); No catalogue number printed; also called herpes virus entry mediator; source: bought: ACROBiosystems
T1 sequence (looked up): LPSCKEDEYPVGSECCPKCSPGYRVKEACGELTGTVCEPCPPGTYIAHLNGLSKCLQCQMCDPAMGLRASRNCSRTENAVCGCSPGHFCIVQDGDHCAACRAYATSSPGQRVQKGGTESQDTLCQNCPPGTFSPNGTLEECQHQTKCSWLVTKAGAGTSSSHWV

B1: light1 (peptide)
peptide: Ac-EAGEEVVCRVLDERLVRLRDGTRSYCGAF[Nle]V-NH2
modifications: disulfide 8-26
SMILES: CCCC[C@H](NC(=O)[C@H](Cc1ccccc1)NC(=O)[C@H](C)NC(=O)CNC(=O)[C@@H]1CSSC[C@H](NC(=O)[C@@H](NC(=O)[C@@H](NC(=O)[C@H](CCC(=O)O)NC(=O)[C@H](CCC(=O)O)NC(=O)CNC(=O)[C@H](C)NC(=O)[C@H](CCC(=O)O)NC(C)=O)C(C)C)C(C)C)C(=O)N[C@@H](CCCNC(=N)N)C(=O)N[C@@H](C(C)C)C(=O)N[C@@H](CC(C)C)C(=O)N[C@@H](CC(=O)O)C(=O)N[C@@H](CCC(=O)O)C(=O)N[C@@H](CCCNC(=N)N)C(=O)N[C@@H](CC(C)C)C(=O)N[C@@H](C(C)C)C(=O)N[C@@H](CCCNC(=N)N)C(=O)N[C@@H](CC(C)C)C(=O)N[C@@H](CCCNC(=N)N)C(=O)N[C@@H](CC(=O)O)C(=O)NCC(=O)N[C@@H]([C@@H](C)O)C(=O)N[C@@H](CCCNC(=N)N)C(=O)N[C@@H](CO)C(=O)N[C@@H](Cc2ccc(O)cc2)C(=O)N1)C(=O)N[C@H](C(N)=O)C(C)C
notes: Fragment 210-240 of LIGHT with two residues substituted by cysteines for a disulfide bond; the synthesized peptide has norleucine there; also called peptide 1; source: synthetic peptide (SPPS, RP-HPLC; disulfide bond formed by air oxidation)
B2: light2 (peptide)
peptide: Ac-ECGEEVVVRVLDERLVRLRDGTRSYFGAFCV-NH2
modifications: disulfide 2-30
SMILES: CC(=O)N[C@@H](CCC(=O)O)C(=O)N[C@H]1CSSC[C@@H](C(=O)N[C@H](C(N)=O)C(C)C)NC(=O)[C@H](Cc2ccccc2)NC(=O)[C@H](C)NC(=O)CNC(=O)[C@H](Cc2ccccc2)NC(=O)[C@H](Cc2ccc(O)cc2)NC(=O)[C@H](CO)NC(=O)[C@H](CCCNC(=N)N)NC(=O)[C@H]([C@@H](C)O)NC(=O)CNC(=O)[C@H](CC(=O)O)NC(=O)[C@H](CCCNC(=N)N)NC(=O)[C@H](CC(C)C)NC(=O)[C@H](CCCNC(=N)N)NC(=O)[C@H](C(C)C)NC(=O)[C@H](CC(C)C)NC(=O)[C@H](CCCNC(=N)N)NC(=O)[C@H](CCC(=O)O)NC(=O)[C@H](CC(=O)O)NC(=O)[C@H](CC(C)C)NC(=O)[C@H](C(C)C)NC(=O)[C@H](CCCNC(=N)N)NC(=O)[C@H](C(C)C)NC(=O)[C@H](C(C)C)NC(=O)[C@H](C(C)C)NC(=O)[C@H](CCC(=O)O)NC(=O)[C@H](CCC(=O)O)NC(=O)CNC1=O
notes: Fragment 210-240 of LIGHT with two residues substituted by cysteines for a disulfide bond; also called peptide 2; source: synthetic peptide (SPPS, RP-HPLC; disulfide bond formed by air oxidation)
B3: light3 (peptide)
peptide: Ac-TCTHGLYKRTPRYPEELELLVSQCS-NH2
modifications: disulfide 2-24
SMILES: CC(=O)N[C@H](C(=O)N[C@H]1CSSC[C@@H](C(=O)N[C@@H](CO)C(N)=O)NC(=O)[C@H](CCC(N)=O)NC(=O)[C@H](CO)NC(=O)[C@H](C(C)C)NC(=O)[C@H](CC(C)C)NC(=O)[C@H](CC(C)C)NC(=O)[C@H](CCC(=O)O)NC(=O)[C@H](CC(C)C)NC(=O)[C@H](CCC(=O)O)NC(=O)[C@H](CCC(=O)O)NC(=O)[C@@H]2CCCN2C(=O)[C@H](Cc2ccc(O)cc2)NC(=O)[C@H](CCCNC(=N)N)NC(=O)[C@@H]2CCCN2C(=O)[C@H]([C@@H](C)O)NC(=O)[C@H](CCCNC(=N)N)NC(=O)[C@H](CCCCN)NC(=O)[C@H](Cc2ccc(O)cc2)NC(=O)[C@H](CC(C)C)NC(=O)CNC(=O)[C@H](Cc2c[nH]cn2)NC(=O)[C@H]([C@@H](C)O)NC1=O)[C@@H](C)O
notes: Residues 161-185 of LIGHT with two residues substituted by cysteines for a disulfide bond; also called peptide 3; source: synthetic peptide (SPPS, RP-HPLC; disulfide bond formed by air oxidation)
B4: light3_E178L (peptide)
peptide: Ac-TCTHGLYKRTPRYPEELLLLVSQCS-NH2
modifications: disulfide 2-24
SMILES: CC(=O)N[C@H](C(=O)N[C@H]1CSSC[C@@H](C(=O)N[C@@H](CO)C(N)=O)NC(=O)[C@H](CCC(N)=O)NC(=O)[C@H](CO)NC(=O)[C@H](C(C)C)NC(=O)[C@H](CC(C)C)NC(=O)[C@H](CC(C)C)NC(=O)[C@H](CC(C)C)NC(=O)[C@H](CC(C)C)NC(=O)[C@H](CCC(=O)O)NC(=O)[C@H](CCC(=O)O)NC(=O)[C@@H]2CCCN2C(=O)[C@H](Cc2ccc(O)cc2)NC(=O)[C@H](CCCNC(=N)N)NC(=O)[C@@H]2CCCN2C(=O)[C@H]([C@@H](C)O)NC(=O)[C@H](CCCNC(=N)N)NC(=O)[C@H](CCCCN)NC(=O)[C@H](Cc2ccc(O)cc2)NC(=O)[C@H](CC(C)C)NC(=O)CNC(=O)[C@H](Cc2c[nH]cn2)NC(=O)[C@H]([C@@H](C)O)NC1=O)[C@@H](C)O
notes: Analogue of light3 (residues 161-185 of LIGHT with two cysteines for a disulfide bond) in which glutamic acid 178 was replaced by leucine; source: synthetic peptide (SPPS, RP-HPLC; disulfide bond formed by air oxidation)
B5: light4 (peptide)
peptide: Ac-TICHGLYKRTPRYPEELELLVSCQS-NH2
modifications: disulfide 3-23
SMILES: CC[C@H](C)[C@H](NC(=O)[C@@H](NC(C)=O)[C@@H](C)O)C(=O)N[C@H]1CSSC[C@@H](C(=O)N[C@@H](CCC(N)=O)C(=O)N[C@@H](CO)C(N)=O)NC(=O)[C@H](CO)NC(=O)[C@H](C(C)C)NC(=O)[C@H](CC(C)C)NC(=O)[C@H](CC(C)C)NC(=O)[C@H](CCC(=O)O)NC(=O)[C@H](CC(C)C)NC(=O)[C@H](CCC(=O)O)NC(=O)[C@H](CCC(=O)O)NC(=O)[C@@H]2CCCN2C(=O)[C@H](Cc2ccc(O)cc2)NC(=O)[C@H](CCCNC(=N)N)NC(=O)[C@@H]2CCCN2C(=O)[C@H]([C@@H](C)O)NC(=O)[C@H](CCCNC(=N)N)NC(=O)[C@H](CCCCN)NC(=O)[C@H](Cc2ccc(O)cc2)NC(=O)[C@H](CC(C)C)NC(=O)CNC(=O)[C@H](Cc2c[nH]cn2)NC1=O
notes: Residues 161-185 of LIGHT with two residues substituted by cysteines for a disulfide bond; also called peptide 4; source: synthetic peptide (SPPS, RP-HPLC; disulfide bond formed by air oxidation)

Tests used:
HVEM/LIGHT complex = assay: Competitive ELISA, inhibition of HVEM/LIGHT complex formation; type: biochemical, human; conditions: across all tested concentrations (50, 12.5, 3.125 µM)
Protocol: To assess the inhibitory properties of the peptides the ELISA was conducted. Based on the obtained results, it can be concluded that the inhibitory properties of the peptides are strongly correlated with their affinity to HVEM as determined by theoretical methods, as well as with those measured by SpS.
ELISA was conducted using transparent polystyrene 96-well plates (Brand, Wertheim, Germany). Wells were coated with HVEM-His protein at concentration 6 µg/mL dissolved in PBS-T (100 µL per well) and incubated overnight at 4 °C. Unbound sites on the wells by HVEM were blocked with 5% bovine serum albumin (BSA) in PBS-T (200 µL per well). Peptides at three concentrations 50 µM, 12.5 µM, and 3.125 µM dissolved in PBS-T were added and incubated (200 µL per well). […] In the next step horseradish peroxidase (HRP)-conjugated goat antibody (Bio-Rad, Hercules, USA) at dilution 1:3000 in PBS-T (100µL per well) was applied. After each step, wells were washed five times with 200 µL of PBS-T. Incubations were carried out at 37 °C for 2 h, except for the antibody, which was incubated for 1 h. Finally, 200 µL of TMB substrate (Thermo Fisher Scientific,Waltham, MA, USA) was added, and after 15 min of incubation in the dark, absorbance was measured at 492 nm and 650 nm using an Infinite M200 Pro reader (Tecan, Switzerland). The negative control consisted of PBS-T buffer without peptides, while the positive control was mouse anti-human HVEM antibodies (1 µg/well, Bio-Rad, Hercules, CA, USA; #MCA6072GA). Each experiment was performed in three biological replicates, each consisting of three technical replicates and data were analyzed using one-way ANOVA with Dunnett’s post-hoc test in GraphPad Prism (San Diego, USA).

HVEM-His protein = biological target: T1, HVEM-His protein; assay: spectral shift (SpS); Monolith X; HVEM-His labelled with His-Tag Labeling Kit RED-tris-NTA 2nd Generation, final 50 nM; peptides 2 µM to 6.1 pM; PBS-T (0.05% Tween-20, 0.3 M NaCl, pH 7.4); fluorescence ratio 670/650 nm; 25 °C; apparent Kd (peptides aggregated at higher concentrations); conditions: both partners purified

Row | Molecule | inhibition of HVEM/LIGHT complex formation (HVEM/LIGHT complex) | Kd (HVEM-His protein)
1 | CC[C@H](C)[C@H](NC(=O)[C@@H](NC(C)=O)[C@@H](C)O)C(=O)N[C@H]1CSSC[C@@H](C(=O)N[C@@H](CCC(N)=O)C(=O)N[C@@H](CO)C(N)=O)NC(=O)[C@H](CO)NC(=O)[C@H](C(C)C)NC(=O)[C@H](CC(C)C)NC(=O)[C@H](CC(C)C)NC(=O)[C@H](CCC(=O)O)NC(=O)[C@H](CC(C)C)NC(=O)[C@H](CCC(=O)O)NC(=O)[C@H](CCC(=O)O)NC(=O)[C@@H]2CCCN2C(=O)[C@H](Cc2ccc(O)cc2)NC(=O)[C@H](CCCNC(=N)N)NC(=O)[C@@H]2CCCN2C(=O)[C@H]([C@@H](C)O)NC(=O)[C@H](CCCNC(=N)N)NC(=O)[C@H](CCCCN)NC(=O)[C@H](Cc2ccc(O)cc2)NC(=O)[C@H](CC(C)C)NC(=O)CNC(=O)[C@H](Cc2c[nH]cn2)NC1=O [light4] (Ac-TICHGLYKRTPRYPEELELLVSCQS-NH2; disulfide 3-23) | below 10% | 
2 | B1 |  | 1680 nM
3 | B2 |  | 1380 nM
4 | B3 |  | 580 nM
5 | B4 |  | 710 nM
6 | B5 |  | 1720 nM
